The source of these data is patent publication US7229777B2, “Hairpin peptides with a novel structural motif and methods relating thereto” (Genentech, Inc., priority 2001, dated 2007).

Like-named read-outs stand apart in the source and are kept apart here. Square brackets hold non-standard residues; d marks the D form. Ends that are not written are not given here.

Series [1] can be described thus: CD-monitored thermal denaturation (two-state unfolding fit). To be noted: for ΔCp / Tm / ΔHm: 20 μM peptide in 20 mM potassium phosphate; for ΔCp / Tm / ΔSm / ΔHm: pH 7.0; for Tm: CD at 229 nm; for ΔSm: calculated from the fit parameters (ΔHm/Tm), 20 μM peptide, 20 mM potassium phosphate; for ΔHm: ΔH at Tm. It counts as physicochemical. How it is done: Spectra were acquired with an Aviv Instruments, Inc. Model 202 spectrophotometer. Peptide concentrations were determined spectrophotometrically as described in Gill & von Hippel (1989) Anal. Biochem. 182:319–326. Melting curves were acquired at 229 nm with […] equilibration at each temperature and an averaging time of 15 s. Thermal denaturation was reversible, as judged by recovery of CD signal (≧95%) upon cooling. In addition, reverse melting curves were acquired for trpzips 1 and 4. Reverse and forward curves were identical in shape, with≦0.5 K shift in Tm. As a model for the unfolded state of the peptides, the melting curve (linear) of an equimolar mixture of the trpzip1 half peptides SWTWEG[SEQ ID NO: 14] and NKWTWK [SEQ ID NO: 15] was measured. Data for the trpzip peptides were then fit to a two-state unfolding equilibrium as described in Minor & Kim (1994) Nature 367:660–663, fixing the unfolded baseline. Folded baselines, Tm, ΔHm (ΔH at Tm), and ΔCp were allowed to vary. For trpzips 5 and 6, the unfolded baseline could be fit directly to the experimental data. ΔSm was calculated from the fit parameters (ΔHm/Tm). Errors in Table 2 were generated by the fitting algorithm (Kaleidagraph, Synergy Software) and were given to indicate the quality of the fits to the particular experimental data set. However, when fitting different data sets, ΔHm and ΔCp values varied by ˜10%, as is typical in thermal denaturation experiments. Becktel & Scheilman (1987) Biopolymers 26:1859–1877.
Fitting the trpzip denaturation curves in this manner required large shifts in Tm (˜5–10 K higher than the minimum in a derivative plot) and generated fits of lower quality. […] From our data on trpzips 4, 5 and 6, we can estimate ΔCp ˜200 cal mol^−1 K^−1 for the gb1 peptide, which is sufficient to explain the discrepancy between our population estimate for the gb1 hairpin and those previously reported (Munoz et al. (1997), supra; Honda et al. (2000), supra). Recently, a non-zero ΔCp (˜100 cal mol^−1 K^−1) was reported for the unfolding of a 12-residue hairpin related to gb1. Espinosa & Gellman (2000) Angew. Chem. Int. Ed. 39:2330–2333.

For series [2] the following is noted: literature estimates, in water, gb1 at 278 K by NMR, cited from earlier work.
A short description of series [3]: Analytical (equilibrium) ultracentrifugation. It counts as physicochemical. The following applies: for σobs/σcalc (reduced apparent molecular weight, observed/calculated): non-ideal single-species model, 20 mM potassium phosphate, 150 mM KCl, pH 7.1, 277 K. As to the method: Samples (in 20 mM potassium phosphate, 150 mM KCl, pH 7.1; 277 K) were analyzed in a Beckman XL-A ultracentrifuge at rotor speeds of 40 and 55 krpm. Peptide concentration was monitored by absorbance at or near 290 nm. Data for both speeds and two initial peptide concentrations (60 and 200 μM, […] data sets total per peptide) were fit simultaneously to a nonideal single species model using the program NONLIN. Johnson et al. (1981) Biophys. J. 36: 575–588.
Allowing nonideality improved the fit for the 200 μM samples while only slightly changing the reduced apparent molecular weight σ (˜+6%). For all 3 peptides, data from 60 μM samples fit an ideal model (FIG. 2) with random residuals. Expected σ values were determined from partial specific volumes based on residue composition, calculated buffer density, and monomer formula weights.

What is called Tm is the temperature at the midpoint of the melting transition. In the case of “GEWHWDDATKTWVWTE (GEWHWDDATKTWVWTE-NH2) [trpzip7]”, in series [1], the ΔCp stood at 418 ± 4 cal mol^−1 K^−1, the Tm was found to be 80.2 ± 0.1 °C, the ΔSm is recorded as 70.8 cal mol^−1 K^−1 and the ΔHm came to 25.03 ± 0.1 kcal/mol.

As for “GEWTWDDATKTWTVTE (GEWTWDDATKTWTVTE-NH2) [trpzip6]”, in series [1], the ΔCp is given as 236 ± 17 cal mol^−1 K^−1, the Tm was found to be 44.6 ± 0.48 °C, the ΔSm is listed as 32.4 cal mol^−1 K^−1 and the ΔHm was 10.29 ± 0.3 kcal/mol. For the same substance, the unfolding free energy in series [1] (298 K) came to 0.49 kcal/mol.

Turning to “GEWTWDDATKTWTWTE (GEWTWDDATKTWTWTE-NH2) [trpzip4]”, in series [1], the ΔCp was found to be 380 ± 4 cal mol^−1 K^−1, the Tm was found to be 70.0 ± 0.1 °C, the ΔSm is on record as 63.7 cal mol^−1 K^−1 and the ΔHm was found to be 21.86 ± 0.06 kcal/mol. Besides, the unfolding free energy in series [1] (298 K) is 1.69 kcal/mol. Besides, in series [1] (depending on the method used to estimate the folded population of gb1), the “Melting temperature higher than that of wt gb1 peptide” value is given as “at least 40 K”.

Take “GEWTYDDATKTFTVTE (Streptococcus; Streptococcus Full The 41-56 residue fragment of the protein G B1 domain) [gb1, reference compound]”: in series [1], the “ΔCp, estimated from data on trpzips 4, 5 and 6” value was about 200 cal mol^−1 K^−1. Further, the “ΔGunf, estimated assuming additive stabilization from the two pairs” value in series [1] (298 K, estimated from trpzips 4, 5 and 6) is about -0.6 kcal/mol. For the same substance, the Hairpin population was about 40% in series [2] and “about 50%” in series [2] (listed as GB1 hairpin).

As to “GEWTYDDATKTFTWTE (GEWTYDDATKTFTWTE-NH2) [trpzip5]”, in series [1], the ΔCp was found to be 325 ± 10 cal mol^−1 K^−1, the Tm turned out to be 42.7 ± 0.2 °C, the ΔSm is on record as 42.2 cal mol^−1 K^−1 and the ΔHm was 13.32 ± 0.14 kcal/mol. For the same substance, the unfolding free energy in series [1] (298 K) worked out at 0.57 kcal/mol.

Regarding “GEWVWDDATKTWHWTE (GEWVWDDATKTWHWTE-NH2) [trpzip8]”, in series [1], the ΔCp came out at 440 ± 4 cal mol^−1 K^−1, the Tm came to 79.1 ± 0.1 °C, the ΔSm is given as 73.8 cal mol^−1 K^−1 and the ΔHm came out at 25.98 ± 0.11 kcal/mol.

With “GEWVWDDATKTWVWTE (GEWVWDDATKTWVWTE-NH2) [trpzip9]”, in series [1], the ΔCp stood at 402 ± 2 cal mol^−1 K^−1, the Tm was 92.0 ± 0.0 °C, the ΔSm is reported as 73.1 cal mol^−1 K^−1 and the ΔHm came to 26.69 ± 0.08 kcal/mol.

For the substance “SWTWEGNKWTWK (SWTWEGNKWTWK-NH2) [trpzip1]”, in series [1], the ΔCp was 231 ± 4 cal mol^−1 K^−1, the midpoint of thermal melting (Tm) was determined as 49.9 ± 0.3 °C, the ΔSm is 33.4 cal mol^−1 K^−1 and the ΔHm was 10.79 ± 0.12 kcal/mol. Further, in series [1] (listed as Trpzip1), the Tm is 50 °C. Besides, the “Dependence of thermal denaturation on peptide concentration” value in series [1] (trpzip1 20–150 μM, trpzip4 100 μM vs. 20 μM) is given as “does not shift with peptide concentration”. The “σobs/σcalc (reduced apparent molecular weight, observed/calculated)” value in series [3] is given as 1.02 ± 0.04.

“SWTWENGKWTWK (SWTWENGKWTWK-NH2) [trpzip2]”: in series [1], the ΔCp was 281 ± 2 cal mol^−1 K^−1, the Tm is 71.9 ± 0.1 °C, the ΔSm was 48.6 cal mol^−1 K^−1 and the ΔHm came to 16.77 ± 0.06 kcal/mol. In series [3], the “Peptide concentration up to which monomeric” value is “at least 200 μM” and the “σobs/σcalc (reduced apparent molecular weight, observed/calculated)” value is given as 1.01 ± 0.04.

“SWTWEpNKWTWK (SWTWE[dP]NKWTWK-NH2; N-terminus assumed; SMILES C[C@@H](O)[C@H](NC(=O)[C@H](Cc1c[nH]c2ccccc12)NC(=O)[C@H](CCCCN)NC(=O)[C@H](CC(N)=O)NC(=O)[C@H]1CCCN1C(=O)[C@H](CCC(=O)O)NC(=O)[C@H](Cc1c[nH]c2ccccc12)NC(=O)[C@@H](NC(=O)[C@H](Cc1c[nH]c2ccccc12)NC(=O)[C@@H](N)CO)[C@@H](C)O)C(=O)N[C@@H](Cc1c[nH]c2ccccc12)C(=O)N[C@@H](CCCCN)C(N)=O) [trpzip3]”: in series [1], the ΔCp worked out at 195 ± 2 cal mol^−1 K^−1, the Tm amounted to 78.7 ± 0.2 °C, the ΔSm was 37.0 cal mol^−1 K^−1 and the ΔHm stood at 13.02 ± 0.07 kcal/mol. Besides, in series [3], the “σobs/σcalc (reduced apparent molecular weight, observed/calculated)” value is 1.00 ± 0.04.
